# Test results taken from US20240109972A1, “ANTIBODY AND TAXANE COMBINATION THERAPY” (Genmab A/S, priority 2020, published 2024).
# “Also recorded” adds a separate entry of the source.
# Assay: GEN1046 Phase I dose escalation, safety and dose finding
# Assay type: in vivo
# From the text: The recommended phase 2 dose (RP2D) was based on a review of the available safety and dosing information and could be lower than the maximum tolerated dose (MTD).
substance,measurement,setting,value
"GEN1046: PD-L1×4-1BB bispecific antibody: PD-L1-547-FEAL combined with CD137-009-HC7LC2-FEAR (SEQ ID NOs: 1, 5, 21, 19; 8, 12, 22, 20)",Doses administered safely,1Q3W,up to 1200 mg
same,Patients with dose limiting toxicities (DLTs),dose escalation,Six
same,Severity of most adverse events,dose escalation,mild to moderate
same,Treatment-related bilirubin increases or Grade 4 transaminase elevations,dose escalation,No treatment-related bilirubin increases or Grade 4 transaminase elevations were observed
same,Maximum tolerated dose (MTD),"dose escalation, 1Q3W",not reached; also recorded: no MTD was determined
same,Most frequent adverse events,patients receiving GEN1046,"transaminase elevations, followed by hyperthyroidism, fatigue, nausea, asthenia and neutrophil count decrease"
